Consider 14 molecules from patent publication US9683238, “Vascular endothelial growth factor-binding aptamers” (National University Corporation Tokyo University of …).

Series [1] deals with T1, VEGF165 (vascular endothelial growth factor 165) (Homo sapiens, UniProt P15692-4 P15692-4:27-191). In words: SPR; VEGF immobilized on CM5; TBS with 5 mM KCl, pH 7.4, 20 C. Conditions: tags: R&D Systems, expressed in Sf21 insect cells, chain copies: 2 (inferred, homodimer). How it is done:
(§1) The capacity of each oligonucleotide to bind to VEGF was evaluated using Biacore T200 (GE Healthcare Japan, Japan) by measuring SPR on a CM5 sensor chip. VEGF was dissolved in 10 mM acetate buffer (pH 6.0), and VEGF (about 1000 RU) was covalently bound to the CM5 sensor chip using an amine coupling kit. A non-labeled oligonucleotide (1 µM) was dissolved in Tris-buffered saline (TBS: 10 mM Tris-HCl, 100 mM NaCl, 5 mM KCl; pH 7.4), and the resulting solution was heated at 95° C. for 5 minutes, followed by allowing the solution to cool slowly. Under these conditions, each oligonucleotide is folded to form its specific secondary structure. Various concentrations of the oligonucleotide diluted with TBS was injected at a flow rate of 20 µl/minute at 20° C. onto the CM5 chip on which VEGF was immobilized. Binding between the immobilized VEGF and the oligonucleotide was monitored. By injecting NaCl (1 M), the CM5 chip was regenerated. Using Biacore evaluation software, the association rate and the dissociation rate were approximated to calculate the K_d value.

Series [2] concerns the target T1, VEGF165 (vascular endothelial growth …). Kind of series: SPR; no binding capacity; TBS, 20 C. The conditions noted are these: tags: R&D Systems, expressed in Sf21 insect cells; chain copies: 2 (inferred, homodimer); G4 predicted. The protocol: as §1
For series [3] the target is unchanged. Kind of series: SPR; VEGF immobilized on CM5; TBS (10 mM Tris-HCl, 100 mM NaCl, 5 mM KCl, pH 7.4), 20 C. Conditions: tags: R&D Systems, expressed in Sf21 insect cells; chain copies: 2 (inferred, homodimer).

T1 sequence (P15692 other isoform, or with tags, fused parts or gaps): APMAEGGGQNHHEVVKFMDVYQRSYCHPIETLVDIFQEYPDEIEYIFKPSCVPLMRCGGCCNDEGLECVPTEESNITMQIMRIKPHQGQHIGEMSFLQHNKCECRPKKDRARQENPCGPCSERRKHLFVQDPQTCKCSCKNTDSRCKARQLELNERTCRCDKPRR

TGTGGGGGTGGACGGGCCGGGTAGA (ssDNA) [VEap121]: binding in series [1] (G4) was put at a Kd of 4.7 nM.

TGTGCGGGTGGCCGGGGTGGCCTGC (ssDNA) [3R#07]: the binding result in series [2] was “no binding”.

Turning to TGTGGGGTTGGACGGACCGGGTAGG (ssDNA) [2R#08], in series [2], the binding result is “no binding”.

Turning to TGTGGGGGTGCGCGGGCCGGGCAGG (ssDNA) [2R#11], in series [2], the binding result is given as “no binding”.

For TGTGGGGGGGGTGGGGGTGGACCGC (ssDNA) [3R#06], the binding result in series [2] was “no binding”.

As for TGTGGGGGTGGACGGGCCGAGTACG (ssDNA) [3R03 (3R#03)], the Kd (commonly a measure of binding affinity in units of concentration) in series [1] (G4 predicted) is 1.7 nM.

For TGTGGGGTTGGACGGGCCGTGTAGA (ssDNA) [2R#10], the binding result in series [2] is “no binding”.

In turn, TGTGGGGGTGGACTGGGTGGGTACC (ssDNA) [3R02 (3R#02)] came in with a Kd in series [1] of 0.3 nM.

On to TGTGGGGGTGGTTGGGCGGGGCTGC (ssDNA) [3R09 (3R#09)], for which the Kd in series [1] (G4 predicted) was 2.4 nM.

For the molecule TGTGGGGGAGGACGGGCGGGGATGC (ssDNA) [3R#01], in series [1] (G4 predicted), the Kd was 8.8 nM.

In the case of TGTGCGGGGGGTGGGGGTGGTTCCC (ssDNA) [3R#04], in series [2], the binding result is recorded as “no binding”.

As to TGTGGGGATGGATGGGCCGGGCTGC (ssDNA) [3R08 (3R#08)], the Kd in series [1] (G4 predicted) is 1.5 nM.

As to TGTGGGGCTGGGAGGTCGGGCCTGC (ssDNA) [3R#10], the binding result in series [2] is given as “no binding”.

B1: 3R02 bivalent (ssDNA)
DNA: TGTGGGGGTGGACTGGGTGGGTACCTTTTTTTTTTTGTGGGGGTGGACTGGGTGGGTACC
Take B1: the Kd in series [3] came out at 0.03 nM.
